Assay results: US20030140381, “Genes and regulatory DNA sequences associated with stress-related gene expression in plants and methods of using the same” (Pioneer Hi-Bred International, Inc., published 2003)

Tests used:
[1] = target: T1, ZmABI4 (maize ABI4, AP2-domain transcription factor) (Zea mays); assay: EMSA; described as high affinity
[2] = target: T1, ZmABI4 (maize ABI4, AP2-domain …); assay: EMSA

T1 sequence (chain, as listed by the source): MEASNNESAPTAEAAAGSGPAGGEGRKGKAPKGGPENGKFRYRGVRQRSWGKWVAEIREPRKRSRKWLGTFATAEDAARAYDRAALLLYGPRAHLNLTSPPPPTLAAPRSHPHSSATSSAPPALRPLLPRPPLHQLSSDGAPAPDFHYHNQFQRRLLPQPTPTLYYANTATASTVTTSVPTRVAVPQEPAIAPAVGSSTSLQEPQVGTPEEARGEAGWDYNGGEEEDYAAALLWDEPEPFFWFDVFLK

B1: Adh1 promoter element (-246 to -229) (dsDNA)
DNA 1: CGCCGCCACCGCTTGGCG
DNA 2: CGCCAAGCGGTGGCGGCG
B1: binds [1].

B2: ZmABI4 upstream element (-175 to -158) (dsDNA)
DNA 1: TTTGACCACCGCCCCTCT
DNA 2: AGAGGGGCGGTGGTCAAA
B2: binds [2].
